Drawing on article PMC5421877, “SOCS3 inhibits the pathological effects of IL-22 in non-melanoma skin tumor-derived keratinocytes” (Oncotarget, 2017), this text covers MEK1/2 activation for one molecule.

The test system of this test is MEK phosphorylation. The experiment in a line: Western blot of MEK phosphorylation in healthy keratinocytes (IL-22). It is filed as cell-based, human. The settings on record: IL-22 time course, no peptide, n = 3. The procedure: Figure 5 KIR-ESS peptide inhibits IL-22-induced phosphorylation of STAT3 and Erk in healthy and SCC-derived keratinocytes (A) Protein extracts obtained from healthy keratinocytes (n = 3) pre-treated or not with 15 μM (left panel) or 75 μM (right panel), KIR, KIR-ESS and control (Ctrl1 or Ctrl2) peptides, and, then, […], were subjected to WB analysis to detect STAT3 (Tyr705), Erk and MEK phosphorylation. Filters were probed with anti-STAT3, -Erk and –MEK Abs (top). (B) Protein extracts obtained from healthy keratinocytes (n = 3) pre-treated or not with 75 μM KIR-ESS and control (Ctrl1) peptides, and, then, stimulated or not with IL-22 for 10 min, were subjected to immunoprecipitation for IL-22R1 and Jak1, and then analysed by WB to detect phosphorylated and unphosphorylated forms of the proteins. (C) Unphosphorylated and phosphorylated forms of STAT1 (Tyr701) and STAT3 (Tyr705) were monitored in keratinocytes treated with IFN-γ for 15 min by WB analysis (bottom). In all experimental groups, filters were stripped and re-probed with β-actin Ab. (D) Protein extracts were obtained from CAL27 (left panel) or CAL33 (right panel) lines treated or not with 75 μM peptides in presence of IL-22 or IFN-γ. WB was performed to detect basal and phosphorylated STAT1, STAT3 and Erk. D.I. ratio indicates the densitometric intensity of phosphorylated/unphosphorylated target protein. […]
A general note: Immunoblotting shows a protein as a band on a membrane.

B1: IL-22: cytokine stimulus, R&D Systems (protein, UniProt Q9GZX6 34-179, looked up)
Interleukin-22: APISSHCRLDKSNFQQPYITNRTFMLAKEASLADNNTDVRLIGEKLFHGVSMSERCYLMKQVLNFTLEEVLFPQSDRFQPYMQEVVPFLARLSNRLSTCHIEGDDLHIQRNVQKLKDTVKKLGESGEIKAIGELDLLFMSLRNACI
For B1, the MEK1/2 activation entry is “culminated with STAT3, MEK1/2 and Erk1/2 activation”.
